Measured values taken from US20140087995A1 (published 2014).
Numbered stars: 1 amine (or outer) side, 2 acyl side, 3 side chain; on linkers, the order of the positions; unused ones are H or OH. Bridge positions count the residues as written; N and C are the ends. Side chains are listed from the residue outwards. Ends that are not written are not given here. * marks the point of attachment. C20 diacid = O=C(O)CCCCCCCCCCCCCCCCCCC(=O)*; γGlu = O=C(O)[C@H](CCC(=O)[*:2])N[*:1]

T1: human amylin receptor (human, UniProt P30988 25-474; O60896 24-148, limits assumed)
T1 construct: whole, on cells; Used as cell membranes prepared from the Amylin 3(a)/CRE-luc BHK cells (Assay V); also called hAmylin-R; hAmylinR
T1 sequence (looked up) 1: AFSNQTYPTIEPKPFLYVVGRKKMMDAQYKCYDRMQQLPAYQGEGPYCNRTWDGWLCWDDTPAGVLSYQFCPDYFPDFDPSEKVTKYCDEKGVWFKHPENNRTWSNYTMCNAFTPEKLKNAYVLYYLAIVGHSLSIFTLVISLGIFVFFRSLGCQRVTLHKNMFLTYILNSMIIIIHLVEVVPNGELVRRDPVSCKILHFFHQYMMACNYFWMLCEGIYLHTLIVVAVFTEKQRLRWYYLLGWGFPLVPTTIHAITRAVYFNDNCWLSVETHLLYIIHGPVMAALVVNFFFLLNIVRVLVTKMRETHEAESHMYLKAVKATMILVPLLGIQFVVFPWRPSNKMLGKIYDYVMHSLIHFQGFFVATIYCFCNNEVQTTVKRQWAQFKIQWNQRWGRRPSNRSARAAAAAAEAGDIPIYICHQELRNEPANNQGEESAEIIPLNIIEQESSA
T1 sequence (looked up) 2: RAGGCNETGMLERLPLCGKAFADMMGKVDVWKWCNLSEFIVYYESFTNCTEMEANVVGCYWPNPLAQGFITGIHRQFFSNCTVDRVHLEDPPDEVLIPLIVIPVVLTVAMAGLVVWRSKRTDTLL

T2: human amylin receptor (Amylin 3(a) receptor: human calcitonin receptor co-expressed with RAMP-3) (human, UniProt P30988 25-474; O60896 24-148, limits assumed)
T2 construct: whole, on cells; Used as cell membranes prepared from the Amylin 3(a)/CRE-luc BHK cells (Assay V); the complex is called the human amylin receptor; also called hAmylin-R; hAmylinR
T2 sequence (looked up) 1: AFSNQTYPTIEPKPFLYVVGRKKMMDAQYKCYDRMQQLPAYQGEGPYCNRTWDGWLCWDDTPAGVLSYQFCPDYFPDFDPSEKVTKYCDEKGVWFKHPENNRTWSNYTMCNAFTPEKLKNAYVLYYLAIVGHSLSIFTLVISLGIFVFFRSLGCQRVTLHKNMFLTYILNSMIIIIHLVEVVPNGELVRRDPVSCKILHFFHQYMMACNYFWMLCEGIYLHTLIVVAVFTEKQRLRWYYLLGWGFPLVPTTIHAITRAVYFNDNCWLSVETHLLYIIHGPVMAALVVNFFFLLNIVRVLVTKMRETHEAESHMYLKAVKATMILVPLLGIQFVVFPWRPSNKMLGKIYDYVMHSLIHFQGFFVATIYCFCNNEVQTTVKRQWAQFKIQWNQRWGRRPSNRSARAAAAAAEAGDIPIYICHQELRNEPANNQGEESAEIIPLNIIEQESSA
T2 sequence (looked up) 2: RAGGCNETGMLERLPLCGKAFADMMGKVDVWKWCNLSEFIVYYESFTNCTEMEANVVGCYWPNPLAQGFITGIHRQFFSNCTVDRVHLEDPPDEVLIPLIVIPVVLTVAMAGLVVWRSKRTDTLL


target: T1, human amylin receptor; assay: SPA competition vs 125I-rat amylin, membranes of amylin 3(a) receptor BHK cells (Assay V)
Description: The binding assay was performed using scintillation proximity assay (SPA) beads (RPNQ0001) from PerkinElmer and cell membranes from the Amylin 3(a)/CRE-luc cells (as described in Assay (II)) were used. Membranes were prepared in the following way; the cells were rinsed with PBS and incubated with Versene for approximately 5 min before harvesting. The cells were flushed with PBS and the cell-suspension was centrifuged for 5 min at 1000 rpm. Cells were homogenized (ultrathurrax) in a buffer containing 20 mM Na-HEPES and 10 mM EDTA (pH 7.4) and centrifuged at 20.000 rpm for 15 min. The resulting pellet was resuspended, homogenized and centrifuged (20.000 rpm, 15 min) in a buffer containing 20 mM Na-HEPES and 0.1 mM EDTA (pH 7.4, buffer 2). The resulting pellet was resuspended in buffer 2 and protein concentration was measured (BCA protein Assay, Pierce). The homogenate was kept cold during the whole procedure. The membranes were kept at −80° C. until use. The assay was performed in a 384 well Optiplate (PerkinElmer) in a total volume of 40 ul. Membranes were mixed with SPA beads. Final concentration of membranes 35 ng/μL final and SPA beads was 0.05 mg/well. Test-compounds were dissolved in DMSO and further diluted in assay buffer (50 mM Hepes, pH 7.4, 1 mM CaCl2, 5 mM MgCl₂, 0.1% OA and 0.02% Tween20). […] The final mixture was incubated with shaking at 400 rpm for 120 min at 25° C. prior to centrifugation (1500 rpm, 10 min). Samples were analyzed on TopCounter™ (Packard). The IC₅₀ was calculated using (one site binding competition analysis) GraphPad Prism5 as a measure of receptor affinity.

Binder | IC50 [nM]
{C20 diacid-γGlu-γGlu}-KCNTATCATQRLAEFLRHSSPNFGAIPSSTNVGSNTY-NH2 (disulfide 2-7; SMILES CC[C@H](C)[C@H](NC(=O)[C@H](C)NC(=O)CNC(=O)[C@H](Cc1ccccc1)NC(=O)[C@H](CC(N)=O)NC(=O)[C@@H]1CCCN1C(=O)[C@H](CO)NC(=O)[C@H](CO)NC(=O)[C@H](Cc1c[nH]cn1)NC(=O)[C@H](CCCNC(=N)N)NC(=O)[C@H](CC(C)C)NC(=O)[C@H](Cc1ccccc1)NC(=O)[C@H](CCC(=O)O)NC(=O)[C@H](C)NC(=O)[C@H](CC(C)C)NC(=O)[C@H](CCCNC(=N)N)NC(=O)[C@H](CCC(N)=O)NC(=O)[C@@H](NC(=O)[C@H](C)NC(=O)[C@@H]1CSSC[C@H](NC(=O)[C@H](CCCCN)NC(=O)CC[C@H](NC(=O)CC[C@H](NC(=O)CCCCCCCCCCCCCCCCCCC(=O)O)C(=O)O)C(=O)O)C(=O)N[C@@H](CC(N)=O)C(=O)N[C@@H]([C@@H](C)O)C(=O)N[C@@H](C)C(=O)N[C@@H]([C@@H](C)O)C(=O)N1)[C@@H](C)O)C(=O)N1CCC[C@H]1C(=O)N[C@@H](CO)C(=O)N[C@@H](CO)C(=O)N[C@H](C(=O)N[C@@H](CC(N)=O)C(=O)N[C@H](C(=O)NCC(=O)N[C@@H](CO)C(=O)N[C@@H](CC(N)=O)C(=O)N[C@H](C(=O)N[C@@H](Cc1ccc(O)cc1)C(N)=O)[C@@H](C)O)C(C)C)[C@@H](C)O, also called compound 15) | 0.597
{C20 diacid-γGlu}-KCNTATCATQRLANFLRHSSPNFGAIPSSTPVGSETY-NH2 (disulfide 2-7; SMILES CC[C@H](C)[C@H](NC(=O)[C@H](C)NC(=O)CNC(=O)[C@H](Cc1ccccc1)NC(=O)[C@H](CC(N)=O)NC(=O)[C@@H]1CCCN1C(=O)[C@H](CO)NC(=O)[C@H](CO)NC(=O)[C@H](Cc1c[nH]cn1)NC(=O)[C@H](CCCNC(=N)N)NC(=O)[C@H](CC(C)C)NC(=O)[C@H](Cc1ccccc1)NC(=O)[C@H](CC(N)=O)NC(=O)[C@H](C)NC(=O)[C@H](CC(C)C)NC(=O)[C@H](CCCNC(=N)N)NC(=O)[C@H](CCC(N)=O)NC(=O)[C@@H](NC(=O)[C@H](C)NC(=O)[C@@H]1CSSC[C@H](NC(=O)[C@H](CCCCN)NC(=O)CC[C@H](NC(=O)CCCCCCCCCCCCCCCCCCC(=O)O)C(=O)O)C(=O)N[C@@H](CC(N)=O)C(=O)N[C@@H]([C@@H](C)O)C(=O)N[C@@H](C)C(=O)N[C@@H]([C@@H](C)O)C(=O)N1)[C@@H](C)O)C(=O)N1CCC[C@H]1C(=O)N[C@@H](CO)C(=O)N[C@@H](CO)C(=O)N[C@H](C(=O)N1CCC[C@H]1C(=O)N[C@H](C(=O)NCC(=O)N[C@@H](CO)C(=O)N[C@@H](CCC(=O)O)C(=O)N[C@H](C(=O)N[C@@H](Cc1ccc(O)cc1)C(N)=O)[C@@H](C)O)C(C)C)[C@@H](C)O, also called compound 28) | 0.61
KCNTATCATQRLAEFLRHSSPNFGAIPSSTNVGSNTY (C20 diacid-gGlu-2xOEG on alpha amino group of the N-terminal residue; Cys2-Cys7 disulfide and C-terminal amide as in h-amylin, also called compound 19) | 0.556
KCNTATCATQRLANFLRHSSPNFGAIPSSTNVGSETY (C20 diacid-gGlu on alpha amino group of the N-terminal residue; Cys2-Cys7 disulfide and C-terminal amide as in h-amylin, also called compound 23) [N^α1-[(4S)-4-carboxy-4-(19-carboxynonadecanoylamino)butanoyl]-[Arg17,Pro21,Pro27,Glu35]-h-amylin] | 0.871
KCNTATCATQRLANFLRHSSPNFGAIPSSTNVGHNTY (C20 diacid-gGlu on alpha amino group of the N-terminal residue; Cys2-Cys7 disulfide and C-terminal amide as in h-amylin, also called compound 40) [N^α1-[(4S)-4-carboxy-4-(19-carboxynonadecanoylamino)butanoyl]-[Arg17,Pro21,Pro27,His34]-h-amylin] | 0.549
KCNTATCATQRLANFLRHSSPNFGAIPSSTNVGRNTY (C20 diacid-gGlu on alpha amino group of the N-terminal residue; Cys2-Cys7 disulfide and C-terminal amide as in h-amylin, also called compound 39) [N^α1-[(4S)-4-carboxy-4-(19-carboxynonadecanoylamino)butanoyl]-[Arg17,Pro21,Pro27,Arg34]-h-amylin] | 0.665

target: T2, human amylin receptor (Amylin 3(a) …); assay: SPA competition binding, displacement of 125I-rat amylin from membranes of BHK cells with human calcitonin receptor + RAMP-3 (Assay V)
Summary of the method: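 Membranes from BHK Amylin 3(a)/CRE-luc cells (35 ng/μL final) were mixed with SPA beads and test compounds in 50 mM Hepes pH 7.4 with 1 mM CaCl2, 5 mM MgCl₂, 0.1% OA and 0.02% Tween20. Incubation ran 120 min at 25° C with shaking; IC₅₀ came from one-site competition fitting.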

Binder | IC50 [nM]
K([γGlu-γGlu-C20 diacid])CNTATCATQRLASFLRHSSPNFGAIPSSTNVGPETY-NH2 (disulfide 2-7; N-terminus assumed; SMILES CC[C@H](C)[C@H](NC(=O)[C@H](C)NC(=O)CNC(=O)[C@H](Cc1ccccc1)NC(=O)[C@H](CC(N)=O)NC(=O)[C@@H]1CCCN1C(=O)[C@H](CO)NC(=O)[C@H](CO)NC(=O)[C@H](Cc1c[nH]cn1)NC(=O)[C@H](CCCNC(=N)N)NC(=O)[C@H](CC(C)C)NC(=O)[C@H](Cc1ccccc1)NC(=O)[C@H](CO)NC(=O)[C@H](C)NC(=O)[C@H](CC(C)C)NC(=O)[C@H](CCCNC(=N)N)NC(=O)[C@H](CCC(N)=O)NC(=O)[C@@H](NC(=O)[C@H](C)NC(=O)[C@@H]1CSSC[C@H](NC(=O)[C@@H](N)CCCCNC(=O)CC[C@H](NC(=O)CC[C@H](NC(=O)CCCCCCCCCCCCCCCCCCC(=O)O)C(=O)O)C(=O)O)C(=O)N[C@@H](CC(N)=O)C(=O)N[C@@H]([C@@H](C)O)C(=O)N[C@@H](C)C(=O)N[C@@H]([C@@H](C)O)C(=O)N1)[C@@H](C)O)C(=O)N1CCC[C@H]1C(=O)N[C@@H](CO)C(=O)N[C@@H](CO)C(=O)N[C@H](C(=O)N[C@@H](CC(N)=O)C(=O)N[C@H](C(=O)NCC(=O)N1CCC[C@H]1C(=O)N[C@@H](CCC(=O)O)C(=O)N[C@H](C(=O)N[C@@H](Cc1ccc(O)cc1)C(N)=O)[C@@H](C)O)C(C)C)[C@@H](C)O, modifications are with respect to human amylin; also called compound 120) | 0.076
K([γGlu-C20 diacid])CNTATCATQRLAEFLRHSSPNFGAIPSSTNVGPETY-NH2 (disulfide 2-7; N-terminus assumed; SMILES CC[C@H](C)[C@H](NC(=O)[C@H](C)NC(=O)CNC(=O)[C@H](Cc1ccccc1)NC(=O)[C@H](CC(N)=O)NC(=O)[C@@H]1CCCN1C(=O)[C@H](CO)NC(=O)[C@H](CO)NC(=O)[C@H](Cc1c[nH]cn1)NC(=O)[C@H](CCCNC(=N)N)NC(=O)[C@H](CC(C)C)NC(=O)[C@H](Cc1ccccc1)NC(=O)[C@H](CCC(=O)O)NC(=O)[C@H](C)NC(=O)[C@H](CC(C)C)NC(=O)[C@H](CCCNC(=N)N)NC(=O)[C@H](CCC(N)=O)NC(=O)[C@@H](NC(=O)[C@H](C)NC(=O)[C@@H]1CSSC[C@H](NC(=O)[C@@H](N)CCCCNC(=O)CC[C@H](NC(=O)CCCCCCCCCCCCCCCCCCC(=O)O)C(=O)O)C(=O)N[C@@H](CC(N)=O)C(=O)N[C@@H]([C@@H](C)O)C(=O)N[C@@H](C)C(=O)N[C@@H]([C@@H](C)O)C(=O)N1)[C@@H](C)O)C(=O)N1CCC[C@H]1C(=O)N[C@@H](CO)C(=O)N[C@@H](CO)C(=O)N[C@H](C(=O)N[C@@H](CC(N)=O)C(=O)N[C@H](C(=O)NCC(=O)N1CCC[C@H]1C(=O)N[C@@H](CCC(=O)O)C(=O)N[C@H](C(=O)N[C@@H](Cc1ccc(O)cc1)C(N)=O)[C@@H](C)O)C(C)C)[C@@H](C)O, modifications are with respect to human amylin) | 0.14
